Results as given in patent US20210179680A1, “POLYPEPTIDE, DERIVATIVES THEREOF, AND APPLICATION THEREOF IN PREPARATION OF DRUGS HAVING RESISTANCE TO PULMONARY FIBROSIS” (priority 2016, published 2021).
Bridge positions count the residues as written; N and C are the ends. Square brackets hold non-standard residues; d marks the D form. Ends that are not written are not given here. S5 = C=CCCC[C@](C)(N)C(=O)O

T1: Purified TRB3 protein (purchased from RD) (UniProt Q96RU7 1-358, limits assumed)
T1 construct: Amine-coupled to the Biacore chip; also called Tribbles Homologue 3
T1 sequence (looked up): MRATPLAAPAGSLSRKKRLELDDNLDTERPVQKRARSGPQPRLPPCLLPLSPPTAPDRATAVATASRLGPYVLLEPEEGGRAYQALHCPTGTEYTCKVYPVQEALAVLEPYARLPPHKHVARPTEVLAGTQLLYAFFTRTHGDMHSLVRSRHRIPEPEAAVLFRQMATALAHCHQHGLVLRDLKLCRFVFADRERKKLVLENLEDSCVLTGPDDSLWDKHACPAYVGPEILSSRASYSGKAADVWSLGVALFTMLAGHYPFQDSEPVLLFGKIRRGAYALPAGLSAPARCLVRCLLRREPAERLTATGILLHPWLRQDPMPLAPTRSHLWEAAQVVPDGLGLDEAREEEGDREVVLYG


Molecular target: T1, Purified TRB3 protein (purchased from …)
Experiment: SPR, Biacore T200, TRB3 amine-coupled to chip, peptide as analyte, 25° C.
Procedure: The surface plasmon resonance experiment was carried out in a surface plasmon resonator Biacore T200, and the procedure was carried out in accordance with the instructions of the plasma resonator Biacore T200. Specific steps are as follows:
1. Purified TRB3 protein (purchased from RD) was coupled to a CMS chip (purchased from GE) by amidogen, and the unbound protein was eluted at a flow rate of 10 μL/min. The surface of the chip was equilibrated for 2 hours. Among them, the specific steps of amidogen coupling, elution and equilibration refer to the relevant instruction of GE's CMS chip.
2. […] The buffer used was HBS-EP buffer [0.01 M HEPES, 0.15 M NaCl, 3 mM EDTA and 0.005% (w/w) surfactant TWEEN20]. Biacore T200's built-in analysis software was used to simulate the binding curves of different concentrations of peptides to TRB3. FIG. 4-1, 4-2 and Table 1 illustrate that peptides MR2, S1, S2, S3, S4, S5, S6, S7, S8, S9, S10 and S11 can all interacted with the TRB3 protein.

| Binder | Kd [µM] |
| --- | --- |
| HLMACFTCA[S5]KLK[S5]R (staple 10-14; cysteine pairing not given here, Stapled variant of MR2) [polypeptide S10] | 0.0293 |
| HLMACFTC[S5]KKL[S5]KR (staple 9-13; cysteine pairing not given here, Stapled variant of MR2) [polypeptide S9] | 0.0371 |
| HLMAC[S5]TCA[S5]KLKKR (staple 6-10; cysteine pairing not given here, Stapled variant of MR2) [polypeptide S6] | 0.0496 |
| HLMA[S5]FTC[S5]KKLKKR (staple 5-9, Stapled variant of MR2) [polypeptide S5] | 0.0115 |
| HLM[S5]CFT[S5]AKKLKKR (staple 4-8, Stapled variant of MR2) [polypeptide S4] | 0.00963 |
| HL[S5]ACF[S5]CAKKLKKR (staple 3-7; cysteine pairing not given here, Stapled variant of MR2) [polypeptide S3] | 0.0427 |
| [S5]LMA[S5]FTCAKKLKKR (staple 1-5, Stapled variant of MR2) [polypeptide S1] | 0.0202 |
| HLMACFTCAKKLKKR (Synthetic unmodified 15-mer; also called MR2 polypeptide) [polypeptide MR2] | 0.0433 |
| HLMACF[S5]CAK[S5]LKKR (staple 7-11; cysteine pairing not given here, Stapled variant of MR2) [polypeptide S7] | 0.00895 |
| H[S5]MAC[S5]TCAKKLKKR (staple 2-6; cysteine pairing not given here, Stapled variant of MR2) [polypeptide S2] | 0.0191 |
| HLMACFTCAK[S5]LKK[S5] (staple 11-15; cysteine pairing not given here, Stapled variant of MR2) [polypeptide S11] | 0.0377 |
| HLMACFT[S5]AKK[S5]KKR (staple 8-12, Stapled variant of MR2) [polypeptide S8] | 0.0359 |
